According to US20140011734A1 (Sanofi, published 2014):
Starred links: 1 amine or outer side, 2 acyl side, 3 side chain; linkers in the order of their positions; H or OH if unused. Non-standard residues stand in square brackets, D forms with d. 4‑aminomethylphenylacetic acid = (4-aminomethyl-phenyl)-acetic acid ring linker, O=C(Cc1ccc(CN[*:1])cc1)[*:2]; Chg = N[C@H](C(=O)O)C1CCCCC1; Nle = CCCC[C@H](N)C(=O)O; Orn = NCCC[C@H](N)C(=O)O; Nva = CCC[C@H](N)C(=O)O; Dap = NC[C@H](N)C(=O)O; Ahp = NCCCCCCC(=O)O; Ahx = NCCCCCC(=O)O; GABA = NCCCC(=O)O; βAla = NCCC(=O)O

B1: Cyclo[Ile-His-Asn-Leu-NH-(CH2)6-CO-Thr-Glu-Arg-Met-Ala] (peptide)
peptide: cyclo(IHNL[Ahp]TERMA)
SMILES: CC[C@H](C)[C@@H]1NC(=O)[C@H](C)NC(=O)[C@H](CCSC)NC(=O)[C@H](CCCNC(=N)N)NC(=O)[C@H](CCC(=O)O)NC(=O)[C@H]([C@@H](C)O)NC(=O)CCCCCCNC(=O)[C@H](CC(C)C)NC(=O)[C@H](CC(N)=O)NC(=O)[C@H](Cc2c[nH]cn2)NC1=O
B2: Cyclo[Leu-His-Asn-Leu-NH-(CH2)6-CO-Asp-Glu-Arg-Met-Ala] (peptide)
peptide: cyclo(LHNL[Ahp]DERMA)
SMILES: CSCC[C@@H]1NC(=O)[C@H](CCCNC(=N)N)NC(=O)[C@H](CCC(=O)O)NC(=O)[C@H](CC(=O)O)NC(=O)CCCCCCNC(=O)[C@H](CC(C)C)NC(=O)[C@H](CC(N)=O)NC(=O)[C@H](Cc2c[nH]cn2)NC(=O)[C@H](CC(C)C)NC(=O)[C@H](C)NC1=O
B3: Cyclo[Leu-His-Asn-Leu-NH-(CH2)6-CO-His-Glu-Arg-Met-Ala] (peptide)
peptide: cyclo(LHNL[Ahp]HERMA)
SMILES: CSCC[C@@H]1NC(=O)[C@H](CCCNC(=N)N)NC(=O)[C@H](CCC(=O)O)NC(=O)[C@H](Cc2c[nH]cn2)NC(=O)CCCCCCNC(=O)[C@H](CC(C)C)NC(=O)[C@H](CC(N)=O)NC(=O)[C@H](Cc2c[nH]cn2)NC(=O)[C@H](CC(C)C)NC(=O)[C@H](C)NC1=O
B4: Cyclo[Leu-His-Asn-Leu-NH-(CH2)6-CO-Leu-Glu-Arg-Met-Ala] (peptide)
peptide: cyclo(LHNL[Ahp]LERMA)
SMILES: CSCC[C@@H]1NC(=O)[C@H](CCCNC(=N)N)NC(=O)[C@H](CCC(=O)O)NC(=O)[C@H](CC(C)C)NC(=O)CCCCCCNC(=O)[C@H](CC(C)C)NC(=O)[C@H](CC(N)=O)NC(=O)[C@H](Cc2c[nH]cn2)NC(=O)[C@H](CC(C)C)NC(=O)[C@H](C)NC1=O
B5: Cyclo[Leu-His-Asn-Leu-NH-(CH2)6-CO-Ser-Glu-Arg-Met-Ala] (peptide)
peptide: cyclo(LHNL[Ahp]SERMA)
SMILES: CSCC[C@@H]1NC(=O)[C@H](CCCNC(=N)N)NC(=O)[C@H](CCC(=O)O)NC(=O)[C@H](CO)NC(=O)CCCCCCNC(=O)[C@H](CC(C)C)NC(=O)[C@H](CC(N)=O)NC(=O)[C@H](Cc2c[nH]cn2)NC(=O)[C@H](CC(C)C)NC(=O)[C@H](C)NC1=O
B6: Cyclo[Leu-His-Asn-Leu-NH-(CH2)6-CO-Thr-Glu-Arg-Ile-Ala] (peptide)
peptide: cyclo(LHNL[Ahp]TERIA)
SMILES: CC[C@H](C)[C@@H]1NC(=O)[C@H](CCCNC(=N)N)NC(=O)[C@H](CCC(=O)O)NC(=O)[C@H]([C@@H](C)O)NC(=O)CCCCCCNC(=O)[C@H](CC(C)C)NC(=O)[C@H](CC(N)=O)NC(=O)[C@H](Cc2c[nH]cn2)NC(=O)[C@H](CC(C)C)NC(=O)[C@H](C)NC1=O
B7: Cyclo[Leu-His-Asn-Leu-NH-(CH2)6-CO-Thr-Glu-Arg-Met-Arg] (peptide)
peptide: cyclo(LHNL[Ahp]TERMR)
SMILES: CSCC[C@@H]1NC(=O)[C@H](CCCNC(=N)N)NC(=O)[C@H](CCC(=O)O)NC(=O)[C@H]([C@@H](C)O)NC(=O)CCCCCCNC(=O)[C@H](CC(C)C)NC(=O)[C@H](CC(N)=O)NC(=O)[C@H](Cc2c[nH]cn2)NC(=O)[C@H](CC(C)C)NC(=O)[C@H](CCCNC(=N)N)NC1=O
B8: Cyclo[Leu-His-Asn-Leu-NH-(CH2)6-CO-Thr-Glu-Arg-Met-Gln] (peptide)
peptide: cyclo(LHNL[Ahp]TERMQ)
SMILES: CSCC[C@@H]1NC(=O)[C@H](CCCNC(=N)N)NC(=O)[C@H](CCC(=O)O)NC(=O)[C@H]([C@@H](C)O)NC(=O)CCCCCCNC(=O)[C@H](CC(C)C)NC(=O)[C@H](CC(N)=O)NC(=O)[C@H](Cc2c[nH]cn2)NC(=O)[C@H](CC(C)C)NC(=O)[C@H](CCC(N)=O)NC1=O
B9: Cyclo[Leu-His-Asn-Leu-NH-(CH2)6-CO-Thr-Glu-Lys-Met-Ala] (peptide)
peptide: cyclo(LHNL[Ahp]TEKMA)
SMILES: CSCC[C@@H]1NC(=O)[C@H](CCCCN)NC(=O)[C@H](CCC(=O)O)NC(=O)[C@H]([C@@H](C)O)NC(=O)CCCCCCNC(=O)[C@H](CC(C)C)NC(=O)[C@H](CC(N)=O)NC(=O)[C@H](Cc2c[nH]cn2)NC(=O)[C@H](CC(C)C)NC(=O)[C@H](C)NC1=O
B10: Cyclo[Leu-His-Asn-Leu-NH-(CH2)5-CO-Thr-Glu-Arg-Met-Ala] (peptide)
peptide: cyclo(LHNL[Ahx]TERMA)
SMILES: CSCC[C@@H]1NC(=O)[C@H](CCCNC(=N)N)NC(=O)[C@H](CCC(=O)O)NC(=O)[C@H]([C@@H](C)O)NC(=O)CCCCCNC(=O)[C@H](CC(C)C)NC(=O)[C@H](CC(N)=O)NC(=O)[C@H](Cc2c[nH]cn2)NC(=O)[C@H](CC(C)C)NC(=O)[C@H](C)NC1=O
B11: Cyclo[Nle-His-Asn-Leu-NH-(CH2)6-CO-Thr-Glu-Arg-Met-Ala] (peptide)
peptide: cyclo([Nle]HNL[Ahp]TERMA)
SMILES: CCCC[C@@H]1NC(=O)[C@H](C)NC(=O)[C@H](CCSC)NC(=O)[C@H](CCCNC(=N)N)NC(=O)[C@H](CCC(=O)O)NC(=O)[C@H]([C@@H](C)O)NC(=O)CCCCCCNC(=O)[C@H](CC(C)C)NC(=O)[C@H](CC(N)=O)NC(=O)[C@H](Cc2c[nH]cn2)NC1=O
B12: Cyclo[Leu-His-Asn-Leu-NH-(CH2)3-CO-Asn-Thr-Glu-Arg-Met-Ala] (peptide)
peptide: cyclo(LHNL[GABA]NTERMA)
SMILES: CSCC[C@@H]1NC(=O)[C@H](CCCNC(=N)N)NC(=O)[C@H](CCC(=O)O)NC(=O)[C@H]([C@@H](C)O)NC(=O)[C@H](CC(N)=O)NC(=O)CCCNC(=O)[C@H](CC(C)C)NC(=O)[C@H](CC(N)=O)NC(=O)[C@H](Cc2c[nH]cn2)NC(=O)[C@H](CC(C)C)NC(=O)[C@H](C)NC1=O
B13: Cyclo[Leu-His-Asn-Leu-NH-(CH2)2-CO-Ala-Thr-Glu-Arg-Met-Ala] (peptide)
peptide: cyclo(LHNL[βAla]ATERMA)
SMILES: CSCC[C@@H]1NC(=O)[C@H](CCCNC(=N)N)NC(=O)[C@H](CCC(=O)O)NC(=O)[C@H]([C@@H](C)O)NC(=O)[C@H](C)NC(=O)CCNC(=O)[C@H](CC(C)C)NC(=O)[C@H](CC(N)=O)NC(=O)[C@H](Cc2c[nH]cn2)NC(=O)[C@H](CC(C)C)NC(=O)[C@H](C)NC1=O
B14: Cyclo[Leu-His-Asn-Leu-NH-X4-X3-X2-X1-CO-Thr-Glu-Arg-Met-Ala] of example 3 (peptide)
peptide: cyclo(LHNL[4‑aminomethylphenylacetic acid]TERMA)
SMILES: CSCC[C@@H]1NC(=O)[C@H](CCCNC(=N)N)NC(=O)[C@H](CCC(=O)O)NC(=O)[C@H]([C@@H](C)O)NC(=O)Cc2ccc(cc2)CNC(=O)[C@H](CC(C)C)NC(=O)[C@H](CC(N)=O)NC(=O)[C@H](Cc2c[nH]cn2)NC(=O)[C@H](CC(C)C)NC(=O)[C@H](C)NC1=O
B15: Cyclo[Leu-His-Asn-Leu-NH-(CH2)6-CO-Thr-Glu-Dpr-Met-Ala] (peptide)
peptide: cyclo(LHNL[Ahp]TE[Dap]MA)
SMILES: CSCC[C@@H]1NC(=O)[C@H](CN)NC(=O)[C@H](CCC(=O)O)NC(=O)[C@H]([C@@H](C)O)NC(=O)CCCCCCNC(=O)[C@H](CC(C)C)NC(=O)[C@H](CC(N)=O)NC(=O)[C@H](Cc2c[nH]cn2)NC(=O)[C@H](CC(C)C)NC(=O)[C@H](C)NC1=O
B16: Cyclo[Leu-His-Asn-Leu-NH-(CH2)6-CO-Thr-Glu-Arg-Met-Nva] (peptide)
peptide: cyclo(LHNL[Ahp]TERM[Nva])
SMILES: CCC[C@@H]1NC(=O)[C@H](CCSC)NC(=O)[C@H](CCCNC(=N)N)NC(=O)[C@H](CCC(=O)O)NC(=O)[C@H]([C@@H](C)O)NC(=O)CCCCCCNC(=O)[C@H](CC(C)C)NC(=O)[C@H](CC(N)=O)NC(=O)[C@H](Cc2c[nH]cn2)NC(=O)[C@H](CC(C)C)NC1=O
B17: Cyclo[Leu-D-His-Asn-Leu-NH-(CH2)6-CO-Thr-Glu-Arg-Met-Ala] (peptide)
peptide: cyclo(L[dH]NL[Ahp]TERMA)
SMILES: CSCC[C@@H]1NC(=O)[C@H](CCCNC(=N)N)NC(=O)[C@H](CCC(=O)O)NC(=O)[C@H]([C@@H](C)O)NC(=O)CCCCCCNC(=O)[C@H](CC(C)C)NC(=O)[C@H](CC(N)=O)NC(=O)[C@@H](Cc2c[nH]cn2)NC(=O)[C@H](CC(C)C)NC(=O)[C@H](C)NC1=O
B18: Cyclo[Leu-Orn-Asn-Leu-NH-(CH2)6-CO-Thr-Glu-Arg-Met-Ala] (peptide)
peptide: cyclo(L[Orn]NL[Ahp]TERMA)
SMILES: CSCC[C@@H]1NC(=O)[C@H](CCCNC(=N)N)NC(=O)[C@H](CCC(=O)O)NC(=O)[C@H]([C@@H](C)O)NC(=O)CCCCCCNC(=O)[C@H](CC(C)C)NC(=O)[C@H](CC(N)=O)NC(=O)[C@H](CCCN)NC(=O)[C@H](CC(C)C)NC(=O)[C@H](C)NC1=O

These binders were tested against T1, blood platelet receptor glycoprotein Ib-IX-V complex (GPIb) (human, UniProt P07359 17-652; P13224 26-206; P14770 17-177; P40197 17-560) (assay: inhibition of static adhesion of human platelets to coated vWF-A1; grade B = IC50 between 1 µM and 10 µM).
T1 construct: whole, on cells; also called GPIb complex; GPIb receptor
Protocol: Platelet rich plasma was carefully transferred again to fresh containers, PGE1 (0.5 μg/ml, Sigma) was added and the suspension was allowed to rest for 5 min. This was followed by another centrifugation step for 15 min at 360 g. The supernatant was discarded and the cell pellets were carefully resuspended in tyrode buffer (NaCl, 137 mM (Sigma S-3014); KCl, 2.7 mM (Sigma P-9541); NaHCO₃,12 mM (Riedel deHaen 31437); NaH₂PO₄×2H₂O, 0.36 mM (Merck 6345); MgCl₂×6 H₂O, 1 mM (Sigma M-2670); Hepes, 10 mM (Sigma H-1016); glucose, 5.6 mM (Merck 8342); BSA, 0.1% (Sigma A7906)), and PGE1 (0.25 μg/ml) was added. After 5 min of resting the suspension was spun down for 15 min at 300 g. The supernatant was discarded and the pellets were carefully resuspended in TBS buffer (Tris-HCl, 50 mM (Fluka 93371); NaCl, 120 mM (Sigma S-3014); KCl, 2.7 mM (Sigma P-9541); CaCl₂, 0.05 mM (Sigma C-3306); MgCl₂×6 H₂O, 2 mM (Sigma M-2670); BSA, 0.1% (Sigma A7906); pH 7.4). The platelet count was adjusted to 2×10⁵ cells/μl, and the suspensions from individual donors were pooled at this stage. The platelets were allowed to rest for 30 min at room temperature before calcein AM (2.5 μM per 2×10⁵ cells/pi (Molecular Probes C-3099)) was added. This was followed by 15 min incubation in the dark. Cells were diluted to 5×10⁴ cells/μl and ReoPro (3 μg/ml (Centocor B. V., Leiden, N L)) was added, followed by a 10 min incubation period in the dark before adding the platelets to the assay plates.
96 well plates (Greiner hb, black, clear bottom, F, 655097) were coated with human recombinant vWF-A1 domain (1.5 μg/well, AA 475-706, expressed in E. coli) in Tris buffer (pH 7.4; Tris-HCl, 25 mM; NaCl, 150 mM) and incubated for 1 h at room temperature. After washing the wells 3× with TBS, blocking buffer (TBS with 5% BSA) was added followed by an incubation for 1 h. The wells were washed again 3× with TBS before 200 μl TBS were added to each well, preventing them from drying out. TBS was flicked out and serial dilutions of the test compound were added. The washed and calcein AM labeled thrombocytes were added to the wells (2.5×10⁶ cells/well). Following an adhesion period of 1.5 h in the dark the wells were washed 3× with TBS. Measurement of fluorescence per well was performed in a SpectraMax M5 reader (Molecular Devices). From the raw data % inhibition and IC₅₀ values were calculated.

T1 sequence (P07359 17-652, chain 1 of 4): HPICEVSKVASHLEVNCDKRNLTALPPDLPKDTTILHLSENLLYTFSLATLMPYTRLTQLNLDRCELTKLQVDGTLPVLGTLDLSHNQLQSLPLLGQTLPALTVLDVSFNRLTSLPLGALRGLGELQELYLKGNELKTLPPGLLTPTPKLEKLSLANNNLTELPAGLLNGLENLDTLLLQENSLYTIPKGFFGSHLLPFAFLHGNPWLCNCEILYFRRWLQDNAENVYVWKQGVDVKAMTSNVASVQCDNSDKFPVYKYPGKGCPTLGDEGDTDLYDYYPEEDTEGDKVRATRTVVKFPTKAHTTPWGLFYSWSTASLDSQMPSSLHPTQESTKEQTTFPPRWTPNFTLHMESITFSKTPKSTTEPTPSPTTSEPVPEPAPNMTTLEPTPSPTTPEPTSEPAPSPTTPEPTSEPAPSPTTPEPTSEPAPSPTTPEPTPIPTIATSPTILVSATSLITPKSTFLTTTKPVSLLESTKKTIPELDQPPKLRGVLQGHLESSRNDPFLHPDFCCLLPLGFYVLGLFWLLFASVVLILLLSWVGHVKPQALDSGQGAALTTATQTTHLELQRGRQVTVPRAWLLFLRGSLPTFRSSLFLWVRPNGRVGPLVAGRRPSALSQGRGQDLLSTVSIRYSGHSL
T1 sequence (P13224 26-206, chain 2 of 4): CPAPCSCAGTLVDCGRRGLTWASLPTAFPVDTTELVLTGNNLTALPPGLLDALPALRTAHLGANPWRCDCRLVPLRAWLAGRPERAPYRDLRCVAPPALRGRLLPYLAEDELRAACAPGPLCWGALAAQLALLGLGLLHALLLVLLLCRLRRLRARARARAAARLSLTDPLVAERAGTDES
T1 sequence (P14770 17-177, chain 3 of 4): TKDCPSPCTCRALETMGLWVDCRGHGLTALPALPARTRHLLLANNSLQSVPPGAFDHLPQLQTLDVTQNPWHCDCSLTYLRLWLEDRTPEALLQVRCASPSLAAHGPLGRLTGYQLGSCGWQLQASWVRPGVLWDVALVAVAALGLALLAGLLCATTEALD
T1 sequence (P40197 17-560, chain 4 of 4): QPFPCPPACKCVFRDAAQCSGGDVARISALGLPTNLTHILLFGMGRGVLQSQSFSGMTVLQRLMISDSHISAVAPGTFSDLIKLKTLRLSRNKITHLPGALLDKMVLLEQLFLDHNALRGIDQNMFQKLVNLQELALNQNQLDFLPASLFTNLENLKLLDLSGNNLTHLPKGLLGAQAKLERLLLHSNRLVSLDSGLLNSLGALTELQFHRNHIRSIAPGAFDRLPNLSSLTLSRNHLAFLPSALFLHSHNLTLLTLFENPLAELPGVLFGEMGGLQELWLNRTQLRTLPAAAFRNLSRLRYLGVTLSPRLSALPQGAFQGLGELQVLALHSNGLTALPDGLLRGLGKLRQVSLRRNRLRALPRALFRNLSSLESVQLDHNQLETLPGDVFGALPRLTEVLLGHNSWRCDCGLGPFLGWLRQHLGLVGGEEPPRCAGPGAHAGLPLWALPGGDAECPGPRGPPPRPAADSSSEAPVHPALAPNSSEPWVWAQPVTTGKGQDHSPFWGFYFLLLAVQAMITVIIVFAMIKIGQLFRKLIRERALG

IC50, 1 to 10 µM:
B1, B2, B3, B4, B5, B6, B7, B8, B9, B10, B11, cyclo([Chg]HNL[Ahp]TERMA) [Cyclo[Chg-His-Asn-Leu-NH-(CH2)6-CO-Thr-Glu-Arg-Met-Ala]], B12, B13, B14, B15, B16, B17, B18
